The numbers were not newly measured in PMC7531836, which cites them from elsewhere.

A word on the Kd: it is the concentration at which binding is half-saturated.

In the data set the target is C5 (Homo sapiens) (UniProt P01031).

Take eculizumab: the Kd was 0.12 nM.
